Reference: the DeepSol protein solubility set

test: soluble on expression in E. coli; label from the status in PepcDB or PDB records

Sequence | soluble on expression in E. coli
MAGSSEEAPDYGRGVVIMDDWPGYDLNLFTYPQHYYGDLEYVLIPHGIIVDRIERLAKDIMKDIGYSDIMVLCVLKGGYKFCADLVEHLKNISRNSDRFVSMKVDFIRLKSYRNDQSMGEMQIIGGDDLSTLAGKNVLIVEDVVGTGRTMKALLSNIEKYKPNMIKVASLLVKRTSRSDGFRPDYAGFEIPNLFVVGYALDYNEYFRDLNHICVINEHGKEKYRV | soluble
MIERLFRLIKPGTRQQMVCFHHAGGSAEYFLPWKTDLPPDTALYAIQLPGHGGRINESLLHNLHQMADVIAQSYVYLPVRDTFFFGHSMGAALAFEVALRLQKAGRGITTLYVSGRLPPHKNTNTDFYRQSDVSILNKITQLGGSTLDYQQPELKDLLLPIFRADFTAIETYQRQCTELLNCSVMACVGEQDTEVSVRQMSEWCQVTKGAFRLQVFPGGHFYLNHAQKRLLAFINQSVAAQQSSKECKEYHDEI | not soluble
MENSEKLANSKEVIAYIAERFPKCFILEGEAKPLKIGIFQDLAERLSDDPKVSKTQLRAGLRQYTSSWRYLHGVKPGASRVDLDGNPCGELEEEHIEHAKATLEESKAKVATRRKEQAKKAREEAKAKKTARAATPPKRRPQPAAKKVEQPVETRALNADEITVGNNVSVNMGKGNMPATIVEINKDDVRIRLSNGLQMVVKAENLRS | not soluble
MQAAITVAIPILYKDSVSCSHAESEHFSGTGVTVIIFEVGRDCMKYSFLRQINACVCFDQYEEMEGLLCNGLYMFFIQYTPTILRGDLFAF | not soluble
MSSSQVVRDSAKKLVNLLEKYPKDRIHHLVSFRDVQIARFRRVAGLPNVDDKGKSIKEKKPSLDEIKSIINRTSGPLGLNKEMLTKIQNKMVDEKFTEESINEQIRALSTIMNNKFRNYYDIGDKLYKPAGNPQYYQRLINAVDGKKKESLFTAMRTVLFGK | not soluble
PKPPYSYIALITMAIRDSAGGRLTLAEINEYLMGKFPFFRGSYTGWRNSVRHNLSLNDCFVKVLRDPSRPWGKDNYWMLNPNSEYTFADGVFRRRRYRLS | soluble
MGSDKIHHHHHHMKVRFLQISDLHFQFQNYDTIVMRDKLLDFIEVLRRESDFDFLLLTGDIAHKGDVYNEDVKEYLNGIIKSMGLSKNNVHLVPGNHDISRDMTRTLLIDSIMKSPNPSEMLDKLDQKATNILVEGQRKFFDFYEDFMGVKYPEEDLHFLYQSEKYNVLSINTCLLSDKKGEEGTLLTAQMKLYKAIRKMNKEKNKGKVLNIAIGHHTLGCIESSERESIKAHFDDYFIDLYLAGHVHDSSFNITANTNENPFLELVSGAIIKDEYATPEFISVDVNLDNGETEVTYYIWNTEYKYWSKNNQGGRRLQEGKLNYKINRLESLIEKEIEDNDDKIDEDEFKSFIIDFHEYRESYKTFTSNFDNQIGLDKKFYDMKSGETFKRKFDSYSEYFGVINHIMDSTSYVSADKKELIAETIVDKYLEFHNQYNNGDEIFVKIVNEIYLECHSVLPYSKALTKKYIKILTCWCIYECEIFNDNKRSVKND | not soluble
AELLLSDNEDKKQRIKEEKQLKLVKWNFQAPTDEHISQLQTLLGNQAKVSLMSQLFHKDFKQHLAALDSLVRLADTSPRSLLSNSDLLLKWCTLRFFETNPAALIKVLELCKVIVELIRDTETPMSQEEVSAFVPYLLLKTGEAKDNMRTSVRDIVNVLSDVVGPLKMTPMLLDALKSKNARQRSECLLVIEYYITNAGISPLKSLSVEKTVAPFVGDKDVNVRNAAINVLVACFKFEGDQMWKAAGRMADKDKSLVEERIKRTGV | soluble
MMKLKVYADRMSQPSRAVIIFCKVNGIQFDEVLISLAKRQQLSPEFKDINPLGKVPAIVDGRLKLFESHAILIYLSSAFPSVADHWYPNDLSKRAKIHSVLDWHHTNLRRGAAGYVLNSVLGPALGLPLNPKAAAEAEQLLTKSLSTLETFWLKGNAKFLLGSNQPSIADLSLVCELMQLQVLDDKDRLRLLSTHKKVEQWIENTKKATMPHFDETHEILFKVKEGFQKRREMGTLSKPGLQSKI | soluble
MTEMTKPFLIVIVGPTASGKTELSIEVAKKFNGEIISGDSMQVYQGMDIGTAKVTTEEMEGIPHYMIDILPPDASFSAYEFKKRAEKYIKDITRRGKVPIIAGGTGLYIQSLLYNYAFEDESISEDKMKQVKLKLKELEHLNNNKLHEYLASFDKESAKDIHPNNRKRVLRAIEYYLKTKKLLSSRKKVQQFTENYDTLLIGIEMSRETLYLRINKRVDIMLGHGLFNEVQHLVEQGFEASQSMQAIGYKELVPVIKGNISMENAVEKLKQHSRQYAKRQLTWFKNKMNVHWLNKERMSLQMMLDEITTQINKRSSNHDCKRKHPRPSTRELLEHHHHHH | soluble
MKPLFGKVGVFGVGLLGGSVALGIKERFLAEEVHAYDQDPMALEKVLFLGVADRVHTEVGPWVGELDLGILAAPVGALAELGKALAPWAHPESLWTDVGSVKAKVVAALEGLLPHYLGGHPMAGSERAGVENAHAGLLQNAVWVLTPTERTSPRAREGVRGLVEALGAYPLEMPPGRHDELVARVSHLPYLLAVALNRMVAQSPHRDLLMFLAAGGFRDLTRVASGSPRMSRDMVVENKEALKEAIEELREVLLELEGLLDEPEGLLRAAEEAKRTRDSLPIVRRSLLPEMHDLVVQVPDRPGEIARIATALGEAGVNIKDIEVLTIREAAGALRLSFATREERERARRVLQEAGYRLP | soluble
MGHHHHHHSHMGTVKQLLLFSETEGNPCFLDICGNFLVVGTDLAHFKSFDLSRREAKAHCSCRSLAELVPGVGGIASLRCSSSGSTISILPSKADNSPDSKICFYDVEMDTVTVFDFKTGQIDRRETLSFNEQETNKSHLFVDEGLKNYVPVNHFWDQSEPRLFVCEAVQETPRSQP | soluble
MFKRLFMVALLAIAPLVHAVDQSNPYRLMDEAAKKTFTRLKNEQPKIKQNPDYLRTIVREELLPFVQIKYAGALVLGSYYKDATPAQREAYFNAFGKYLEQAYGQALALYHGQTYDVAPDQPLGDANIVAIRVTILDPSGRPPVRLDFQWRKNSQTGNWQAYDMIAEGVSMISTKQNEWASILRQKGVDGLTQQLLSAAKQPITLDK | not soluble
SESETRVKSVRTGRKPIGNPEDEQETSKPSDDEFLRGKRVLVVDDNFISRKVATGKLKKMGVSEVEQCDSGKEALRLVTEGLTQREEQGSVDKLPFDYIFMDCQMPEMDGYEATREIRKVEKSYGVRTPIIAVSGHDPGSEEARETIQAGMDAFLDKSLNQLANVIREIESKR | not soluble
MGSDKIHHHHHHMPIKVNMFSSASKVKGQGVGSAYEELIRLLKTHFPKQIDVSINKFTKADISHYHTIDPNFYLSTFSKKRGIKVGYVHFLPETIEGSLNIPQPFRSIFYKYIISFYKRMDHIVVVNPTFIDKLVAYGISRDIITYIPNFVRKNEFYRFTEANRDAVRERLEVNNRFTVLGIGQVQERKGVKDFIKLAENNPDKYFIWAGGFSFGRLTDGYADLKQVVDNPPRNLKFTGIVDRNALVEYYNAADLFLLPSYNELFPMSVLEAFSCGVPVMLRDLELYHSIIKGYYIPTQDYEDMNTQLKLVSEDKERLNKFKQLSDEASEEYSEDHLADIWLDFYSSLTK | not soluble
MAYWLMKSEPDELSIEALARLGEARWDGVRNYQARNFLRAMSVGDEFFFYHSSCPQPGIAGIARITRAAYPDPTALDPESHYHDAKATTDKNPWSAVDVAHVQTFPRVLELGRLKQQAGLVELPLVQKGSRLSVMPVTPEQWAVIVALRLEHHHHHH | soluble
MSLNVQTVAVIGSGTMGAGIAEVAASHGHQVLLYDISAEALTRAIDGIHARLNSRVTRGKLTAETCERTLKRLIPVTDIHALAAADLVIEAASERLEVKKALFAQLAEVCPPQTLLTTNTSSISITAIAAEIKNPERVAGLHFFNPAPVMKLVEVVSGLATAAEVVEQLCELTLSWGKQPVRCHSTPGFIVNRVARPYYSEAWRALEEQVAAPEVIDAALRDGAGFPMGPLELTDLIGQDVNFAVTCSVFNAFWQERRFLPSLVQQELVIGGRLGKKSGLGVYDWRAEREAVVGLEAVSDSFSPMKVEKKSDGVTEIDDVLLIETQGETAQALAIRLARPVVVIDKMAGKVVTIAAAAVNPDSATRKAIYYLQQQGKTVLQIADYPGMLIWRTVAMIINEALDALQKGVASEQDIDTAMRLGVNYPYGPLAWGAQLGWQRILRLLENLQHHYGEERYRPCSLLRQRALLESGYESEGHHHHHH | soluble
MAPSCLKMAHMRLLLTSFGHDHIRDFVRGTVAYIPDATRLFADSPEAAPFMETERNMLREHGLSIRELPISTSTPEEVDRVLGEVDGVYVAGGETFDLMWLLRSTGNDEVLIKHVRAGLPYIGTSAGAVIAGPSIEPISFLDSPDVAPNLSDYSGLGLCEHVVVPHAGGTIPQFPIDVFAETVRTYGAEFPLVLLKDGQALLIDDHGVHLILEHHHHHH | soluble
MGSDKIHHHHHHMKRKTLPKLLYADAKGNIFDHPHLCMAGMSGSEAVLPESVELIPLPEGSRLFTIPDTPPVAWDEQQRKFVTVASVREGRRPMPVQAVSAFMAPGYVRLLLPACDYSRKKVHLPLWSYTAVGWDEERDCFVVAASRVDTNQNWNPCNYDDRKLDPLVRQRLAEMPHNRLLEQLARCAVDYHCFAAKNLFFRRWEAPLPTSPACNSRCLGCISLQPSDCCPANHERIGFVPTPEEIVELALPHLLEAPEPIVSYGQGCEGDPIMQADTVAEATRRLKAATSRGTVNFNSNGSFPDRIAMLCDAGMDSMRFSMNSVREEVYDRYYRPVGYRFAEVKESVRLAGERGLFTMINYLVSPGVSDSADEVEALLRFIGETGVKMIQMRNLSIDPDFYNKRMGATGRGIGMYRMLERVKREFPHIQYGYYNRTRENFFPAGYEKGWPIR | not soluble
MGSDKIHHHHHHMSSKVKVIAFYLPQFHPIPENDEWWGKGFTEWTSVGRAKKYYRGHYQPRVPADLGYYDLRLPQVRQQQADLAKEAGISAFCYWHYWFGNGKQLLENPLQEVVKLGEPDFPFCLGWANHTWLNKSWNREKQTVIPKPLILQEYPGKKDVDCHFYTMLPMFRDQRYFRIHGKLLFLIYAPLDIPNFKYFKMRWNELASQNDLPGFYFIANSEDISNIKNPIIREFEAVSLCRLYSAWNIEGKKVNNIVIRITRNISRILGYSLNKISYKKAIEKIDTPYYEEDRVYPNIIPGWDNSPRRGPGAFIFHKATPALFKKHVKMILNRIKDKPDEDKVIFLKSWNEWAEGNYMEPDLKWGKGYIRALREALEEDAK | not soluble
MAHHHHHHMLRLCRVSLRVQSHQKKRAQHPNAGTRFGRVYNRGFIRYGFGGFGMSVYTPKKDRRFRVQPLPSLHANSLADDTPLVTTTRTLSPNFRAFALQDGGVFFTHPSHEQVMRVGQNILAEETKATGMTSMDTYVNSRIQSIIAENTVENVALSHWRRRHMWNLVRTHGKLQRHWGVSDATKGARSNIYGRPS | not soluble
MSNNDCISTDKVDLDKKQIKKFLKQINISQLTKMIQFIDNKLLSDWDFNCLTYFDESEYPFFDINLSLICTIDHNIPINIIINFLCFVEKQYNNVPYHNTIHATMVTQKFFCLAKKLGIYDDLEYKIKLVMFISGICHDIGHPGYNNLFFVNSLHPLSIIYNDISVLENYHASITFKILQLNQCNILKNFSEKDFRMMRSYIIELILSTDMKHHFEIISKFRIRRENEDFDYIKNSDDLLILTKMIIKSADISHGSVSWSEHYCWCQRVLSEFYTQGDEELKNKMPLSPLCDRTKHNEVCKSQITFLKFVVMPLFEELSHIDNNKFIKSFCLKRLNSNCIMWDTLMKEEKTIE | soluble
HHHHHHSSGLVPRGSHMSCEELEIVWNNIKAEARTLADCEPMLASFYHATLLKHENLGSALSYMLANKLSSPIMPAIAIREVVEEAYAADPEMIASAACDIQAVRTRDPAVDKYSTPLLYLKGFHALQAYRIGHWLWNQGRRALAIFLQNQVSVTFQVDIHPAAKIGRGIMLDHATGIVVGETAVIENDVSILQSVTLGGTGKSGGDRHPKIREGVMIGAGAKILGNIEVGRGAKIGAGSVVLQPVPPHTTAAGVPARIVGKPDSDKPSMDMDQHFNGINHTFEYGDGI | soluble
